From US20250171512A1

Molecular target: human FGFR1c together with human beta-Klotho (KLB), stably expressed on CHO Flp-In cells (human) (UniProt P11362)
Assay: cell-based or functional assay

human FGFR1c together with human beta-Klotho (KLB), stably expressed on CHO Flp-In cells (human), sequence (P11362 22-822, chain 1 of 2): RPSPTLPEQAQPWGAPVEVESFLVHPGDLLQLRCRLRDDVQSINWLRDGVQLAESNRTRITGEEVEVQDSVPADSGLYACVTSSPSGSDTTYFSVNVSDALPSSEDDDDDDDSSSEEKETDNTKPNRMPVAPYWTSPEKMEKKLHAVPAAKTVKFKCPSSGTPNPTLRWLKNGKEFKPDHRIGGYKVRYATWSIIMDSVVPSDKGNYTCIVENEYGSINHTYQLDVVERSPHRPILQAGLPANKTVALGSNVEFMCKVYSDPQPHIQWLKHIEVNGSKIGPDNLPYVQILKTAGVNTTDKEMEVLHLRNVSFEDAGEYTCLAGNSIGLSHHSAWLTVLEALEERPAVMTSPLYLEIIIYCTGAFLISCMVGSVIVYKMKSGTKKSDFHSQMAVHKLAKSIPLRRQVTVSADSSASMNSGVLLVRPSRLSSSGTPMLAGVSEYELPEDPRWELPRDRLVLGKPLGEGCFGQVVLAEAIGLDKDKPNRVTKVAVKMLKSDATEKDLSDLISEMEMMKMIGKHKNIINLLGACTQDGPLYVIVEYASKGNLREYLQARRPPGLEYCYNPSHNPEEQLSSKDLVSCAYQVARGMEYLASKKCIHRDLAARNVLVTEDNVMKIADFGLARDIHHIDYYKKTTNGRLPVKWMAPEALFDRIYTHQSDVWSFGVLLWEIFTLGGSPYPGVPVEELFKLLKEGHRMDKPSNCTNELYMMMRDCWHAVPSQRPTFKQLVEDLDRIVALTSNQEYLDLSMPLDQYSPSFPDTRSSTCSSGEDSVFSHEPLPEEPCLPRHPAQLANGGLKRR
human FGFR1c together with human beta-Klotho (KLB), stably expressed on CHO Flp-In cells (human), sequence (Q86Z14 whole entry, chain 2 of 2, further chain): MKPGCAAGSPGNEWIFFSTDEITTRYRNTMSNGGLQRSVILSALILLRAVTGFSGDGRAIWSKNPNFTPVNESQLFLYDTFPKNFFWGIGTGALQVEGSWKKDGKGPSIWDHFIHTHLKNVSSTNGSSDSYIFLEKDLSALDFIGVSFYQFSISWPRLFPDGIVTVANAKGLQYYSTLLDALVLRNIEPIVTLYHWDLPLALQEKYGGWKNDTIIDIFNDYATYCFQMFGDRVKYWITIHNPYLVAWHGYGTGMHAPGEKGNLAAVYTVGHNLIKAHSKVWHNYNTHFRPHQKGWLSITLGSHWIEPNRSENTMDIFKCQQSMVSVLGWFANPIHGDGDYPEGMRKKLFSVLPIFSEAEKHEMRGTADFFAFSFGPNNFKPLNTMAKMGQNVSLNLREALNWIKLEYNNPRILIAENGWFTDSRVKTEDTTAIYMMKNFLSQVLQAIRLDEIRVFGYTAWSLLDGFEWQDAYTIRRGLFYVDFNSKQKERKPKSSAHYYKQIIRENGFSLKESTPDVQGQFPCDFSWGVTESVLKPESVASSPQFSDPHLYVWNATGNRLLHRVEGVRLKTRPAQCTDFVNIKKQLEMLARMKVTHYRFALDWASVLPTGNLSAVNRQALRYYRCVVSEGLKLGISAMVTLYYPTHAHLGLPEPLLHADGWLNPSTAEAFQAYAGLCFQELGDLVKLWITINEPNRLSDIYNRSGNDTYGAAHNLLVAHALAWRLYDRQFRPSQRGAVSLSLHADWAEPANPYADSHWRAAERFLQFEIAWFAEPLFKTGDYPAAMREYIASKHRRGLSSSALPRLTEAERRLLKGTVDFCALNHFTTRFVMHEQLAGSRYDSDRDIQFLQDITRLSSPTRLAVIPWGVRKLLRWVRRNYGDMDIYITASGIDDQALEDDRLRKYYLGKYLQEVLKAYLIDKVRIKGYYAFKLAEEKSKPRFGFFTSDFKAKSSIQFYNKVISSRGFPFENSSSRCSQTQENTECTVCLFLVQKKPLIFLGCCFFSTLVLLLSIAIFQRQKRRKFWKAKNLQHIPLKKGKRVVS
FGF21 M196 deleted, S201 deleted (SEQ ID NO: 70), sequence (Q9NSA1 other isoform, or with tags, fused parts or gaps): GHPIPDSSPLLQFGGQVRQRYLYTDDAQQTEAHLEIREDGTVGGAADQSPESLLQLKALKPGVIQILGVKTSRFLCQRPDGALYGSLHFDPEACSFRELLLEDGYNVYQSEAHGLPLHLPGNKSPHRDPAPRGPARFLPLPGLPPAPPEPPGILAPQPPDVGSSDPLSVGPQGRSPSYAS
FGF21 V197 deleted (SEQ ID NO: 34), sequence (Q9NSA1 other isoform, or with tags, fused parts or gaps): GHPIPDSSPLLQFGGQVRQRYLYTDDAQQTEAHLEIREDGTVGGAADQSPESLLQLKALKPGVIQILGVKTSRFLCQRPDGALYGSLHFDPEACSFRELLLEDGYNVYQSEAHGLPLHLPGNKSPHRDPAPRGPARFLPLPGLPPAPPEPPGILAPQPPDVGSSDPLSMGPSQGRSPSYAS
FGF21 P199 deleted (SEQ ID NO: 11), sequence (Q9NSA1 other isoform, or with tags, fused parts or gaps): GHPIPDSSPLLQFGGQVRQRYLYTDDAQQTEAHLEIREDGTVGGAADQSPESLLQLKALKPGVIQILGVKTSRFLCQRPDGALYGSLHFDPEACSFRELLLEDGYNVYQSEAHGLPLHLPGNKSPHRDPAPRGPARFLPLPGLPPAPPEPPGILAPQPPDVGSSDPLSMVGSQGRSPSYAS
FGF21 Q184 deleted (SEQ ID NO: 60), sequence (Q9NSA1 other isoform, or with tags, fused parts or gaps): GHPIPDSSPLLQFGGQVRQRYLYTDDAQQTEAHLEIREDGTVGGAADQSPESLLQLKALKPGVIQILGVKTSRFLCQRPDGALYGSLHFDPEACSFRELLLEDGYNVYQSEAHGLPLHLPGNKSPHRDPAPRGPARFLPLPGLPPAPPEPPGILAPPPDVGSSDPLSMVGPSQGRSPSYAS
FGF21 D187 deleted (SEQ ID NO: 57), sequence (Q9NSA1 other isoform, or with tags, fused parts or gaps): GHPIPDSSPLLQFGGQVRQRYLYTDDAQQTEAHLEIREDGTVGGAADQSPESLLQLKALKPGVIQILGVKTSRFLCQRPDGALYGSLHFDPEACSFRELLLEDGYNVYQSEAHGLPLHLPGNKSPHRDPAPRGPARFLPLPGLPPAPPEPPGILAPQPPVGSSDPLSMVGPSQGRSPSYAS
FGF21 S200 deleted (SEQ ID NO: 61), sequence (Q9NSA1 other isoform, or with tags, fused parts or gaps): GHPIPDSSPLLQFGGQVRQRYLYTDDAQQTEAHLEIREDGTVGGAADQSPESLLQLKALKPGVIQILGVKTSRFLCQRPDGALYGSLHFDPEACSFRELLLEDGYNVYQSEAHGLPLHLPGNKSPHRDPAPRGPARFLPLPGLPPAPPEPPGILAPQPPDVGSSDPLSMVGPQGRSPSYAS
FGF21 G198 deleted, S200 deleted (SEQ ID NO: 74), sequence (Q9NSA1 other isoform, or with tags, fused parts or gaps): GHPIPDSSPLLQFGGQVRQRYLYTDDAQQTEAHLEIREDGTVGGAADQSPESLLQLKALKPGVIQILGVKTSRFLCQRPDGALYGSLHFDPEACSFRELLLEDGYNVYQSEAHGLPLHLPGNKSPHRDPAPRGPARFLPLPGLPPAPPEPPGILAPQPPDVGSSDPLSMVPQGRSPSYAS
FGF21 G198-P199 deleted (SEQ ID NO: 30), sequence (Q9NSA1 other isoform, or with tags, fused parts or gaps): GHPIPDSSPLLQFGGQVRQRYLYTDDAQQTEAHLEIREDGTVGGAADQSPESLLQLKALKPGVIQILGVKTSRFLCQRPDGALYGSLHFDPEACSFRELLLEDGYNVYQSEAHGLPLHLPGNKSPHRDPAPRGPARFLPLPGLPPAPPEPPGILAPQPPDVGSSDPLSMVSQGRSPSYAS
FGF21 G202 deleted (SEQ ID NO: 63), sequence (Q9NSA1 other isoform, or with tags, fused parts or gaps): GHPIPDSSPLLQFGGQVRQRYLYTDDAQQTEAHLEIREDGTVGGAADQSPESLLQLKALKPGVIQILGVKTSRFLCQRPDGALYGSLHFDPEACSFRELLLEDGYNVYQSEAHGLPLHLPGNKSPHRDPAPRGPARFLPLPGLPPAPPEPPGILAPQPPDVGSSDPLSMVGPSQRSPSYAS
FGF21 S191 deleted (SEQ ID NO: 53), sequence (Q9NSA1 other isoform, or with tags, fused parts or gaps): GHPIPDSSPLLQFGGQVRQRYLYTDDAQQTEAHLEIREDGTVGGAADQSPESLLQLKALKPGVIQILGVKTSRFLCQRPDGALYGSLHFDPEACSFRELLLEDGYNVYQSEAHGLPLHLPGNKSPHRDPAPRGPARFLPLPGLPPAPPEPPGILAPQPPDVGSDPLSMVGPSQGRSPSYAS
FGF21 G198 deleted (SEQ ID NO: 29), sequence (Q9NSA1 other isoform, or with tags, fused parts or gaps): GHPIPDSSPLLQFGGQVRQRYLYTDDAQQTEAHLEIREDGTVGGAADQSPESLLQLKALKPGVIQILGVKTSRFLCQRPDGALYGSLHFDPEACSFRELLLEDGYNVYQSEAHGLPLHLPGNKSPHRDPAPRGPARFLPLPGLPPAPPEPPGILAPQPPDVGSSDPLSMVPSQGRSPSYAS
FGF21 GGGGS inserted between G198 and P199 (SEQ ID NO: 15), sequence (Q9NSA1 other isoform, or with tags, fused parts or gaps): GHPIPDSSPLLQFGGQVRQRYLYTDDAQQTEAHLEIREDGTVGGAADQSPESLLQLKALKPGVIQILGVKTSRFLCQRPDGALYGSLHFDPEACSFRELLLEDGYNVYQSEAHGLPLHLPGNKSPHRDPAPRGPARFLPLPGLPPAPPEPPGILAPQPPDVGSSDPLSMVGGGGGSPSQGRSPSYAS
FGF21 P186 deleted (SEQ ID NO: 58), sequence (Q9NSA1 other isoform, or with tags, fused parts or gaps): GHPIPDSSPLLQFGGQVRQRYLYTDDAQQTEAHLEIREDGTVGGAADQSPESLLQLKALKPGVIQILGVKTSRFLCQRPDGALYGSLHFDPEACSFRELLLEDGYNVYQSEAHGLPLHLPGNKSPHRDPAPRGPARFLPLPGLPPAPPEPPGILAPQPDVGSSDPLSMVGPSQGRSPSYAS
FGF21, human (SEQ ID NO: 2), with N-terminal tag, sequence (Q9NSA1 29-209 L174P): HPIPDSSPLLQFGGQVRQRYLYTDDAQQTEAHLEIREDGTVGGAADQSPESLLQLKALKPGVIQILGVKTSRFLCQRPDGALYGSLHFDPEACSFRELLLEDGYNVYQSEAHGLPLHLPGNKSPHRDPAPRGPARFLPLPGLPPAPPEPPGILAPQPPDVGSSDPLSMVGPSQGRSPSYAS
FGF21 P205 deleted (SEQ ID NO: 66), sequence (Q9NSA1 other isoform, or with tags, fused parts or gaps): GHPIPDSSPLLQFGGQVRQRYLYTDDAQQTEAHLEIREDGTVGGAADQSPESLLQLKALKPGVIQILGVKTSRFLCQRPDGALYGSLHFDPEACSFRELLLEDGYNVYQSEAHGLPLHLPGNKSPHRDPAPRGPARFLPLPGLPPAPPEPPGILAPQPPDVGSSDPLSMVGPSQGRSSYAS
FGF21 G189 deleted (SEQ ID NO: 55), sequence (Q9NSA1 other isoform, or with tags, fused parts or gaps): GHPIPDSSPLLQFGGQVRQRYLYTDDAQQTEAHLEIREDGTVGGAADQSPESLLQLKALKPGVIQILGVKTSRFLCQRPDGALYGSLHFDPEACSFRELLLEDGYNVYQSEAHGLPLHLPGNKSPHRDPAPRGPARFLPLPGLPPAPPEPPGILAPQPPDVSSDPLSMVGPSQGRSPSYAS

Substance | pERK ICW EC50 [nmol/L]
FGF21 A72C, S79C (SEQ ID NO: 87) (from UniProt Q9NSA1 29-209) (ligand) | 11.8
FGF21 E62C, S79C (SEQ ID NO: 102) (from UniProt Q9NSA1 29-209) (ligand) | 0.55
FGF21 P186 deleted (SEQ ID NO: 58) (from UniProt Q9NSA1 29-209) (ligand) | 0.87
FGF21 E78C, T98C (SEQ ID NO: 118) (from UniProt Q9NSA1 29-209) (ligand) | 9.22
FGF21 P205 deleted (SEQ ID NO: 66) (from UniProt Q9NSA1 29-209) (ligand) | 27.4
FGF21 P199Q, Q201P (SEQ ID NO: 10) (from UniProt Q9NSA1 29-209) (ligand) | 1.76
FGF21 GGGGS inserted between G198 and P199 (SEQ ID NO: 15) (from UniProt Q9NSA1 29-209) (ligand) | 3.07
FGF21 S137C, H140C (SEQ ID NO: 84) (from UniProt Q9NSA1 29-209) (ligand) | 3.87
FGF21 Q55G, Q56C, L146C (SEQ ID NO: 96) (from UniProt Q9NSA1 29-209) (ligand) | 163
FGF21, human (SEQ ID NO: 2), with N-terminal tag (from UniProt Q9NSA1 29-209) (ligand) | 1.03
FGF21 D130C, Y132C (SEQ ID NO: 83) (from UniProt Q9NSA1 29-209) (ligand) | 49.4
FGF21 S200 deleted (SEQ ID NO: 61) (from UniProt Q9NSA1 29-209) (ligand) | 1.17
FGF21 R124C, Q136C (SEQ ID NO: 115) (from UniProt Q9NSA1 29-209) (ligand) | 22.6
FGF21 G198Y (SEQ ID NO: 20) (from UniProt Q9NSA1 29-209) (ligand) | 0.68
FGF21 V69C, L110C (SEQ ID NO: 113) (from UniProt Q9NSA1 29-209) (ligand) | 11.7
FGF21 A59C, G71C, P199 deleted (SEQ ID NO: 36) (from UniProt Q9NSA1 29-209) (ligand) | 1.16
FGF21 G198 deleted (SEQ ID NO: 29) (from UniProt Q9NSA1 29-209) (ligand) | 41.6
FGF21 G202 deleted (SEQ ID NO: 63) (from UniProt Q9NSA1 29-209) (ligand) | 8.18
FGF21 G198 deleted, P199L, S200N (SEQ ID NO: 33) (from UniProt Q9NSA1 29-209) (ligand) | 9.44
FGF21 G108C, L142C, G198Y (SEQ ID NO: 41) (from UniProt Q9NSA1 29-209) (ligand) | 0.55
FGF21 A59C, G71C, G198Y (SEQ ID NO: 37) (from UniProt Q9NSA1 29-209) (ligand) | 0.75
FGF21 Q184 deleted (SEQ ID NO: 60) (from UniProt Q9NSA1 29-209) (ligand) | 2.26
FGF21 Q55G, Q56C, L146C, P147-R159 deleted and replaced by GSGS (SEQ ID NO: 97) (from UniProt Q9NSA1 29-209) (ligand) | 114
FGF21 Q55C, N149C, G198Y (SEQ ID NO: 47) (from UniProt Q9NSA1 29-209) (ligand) | 0.58

Substance | pERK ICW EC50 [nmol/L]
FGF21 M196V, V197M (SEQ ID NO: 13) (from UniProt Q9NSA1 29-209) (ligand) | 26.7
FGF21 G198-P199 deleted (SEQ ID NO: 30) (from UniProt Q9NSA1 29-209) (ligand) | 14.5
FGF21 Q104C, H140C (SEQ ID NO: 108) (from UniProt Q9NSA1 29-209) (ligand) | 21.9
FGF21 G198 deleted, P199F (SEQ ID NO: 31) (from UniProt Q9NSA1 29-209) (ligand) | 2.1
FGF21 L146C, A162C (SEQ ID NO: 35) (from UniProt Q9NSA1 29-209) (ligand) | 8.28
FGF21 Q104C, S137C (SEQ ID NO: 107) (from UniProt Q9NSA1 29-209) (ligand) | 1.83
FGF21 V197 deleted (SEQ ID NO: 34) (from UniProt Q9NSA1 29-209) (ligand) | 68.8
FGF21 A59C, G71C (SEQ ID NO: 77) (from UniProt Q9NSA1 29-209) (ligand) | 2.15
FGF21 G189 deleted (SEQ ID NO: 55) (from UniProt Q9NSA1 29-209) (ligand) | 76.2
FGF21 E62C, E78C (SEQ ID NO: 101) (from UniProt Q9NSA1 29-209) (ligand) | 2.44
FGF21 G198K (SEQ ID NO: 19) (from UniProt Q9NSA1 29-209) (ligand) | 1.81
FGF21 H145C, P161C (SEQ ID NO: 120) (from UniProt Q9NSA1 29-209) (ligand) | 6.51
FGF21 S76C, S79C, G198Y (SEQ ID NO: 39) (from UniProt Q9NSA1 29-209) (ligand) | 0.15
FGF21 P199R (SEQ ID NO: 22) (from UniProt Q9NSA1 29-209) (ligand) | 0.95
FGF21 V197-R203 deleted and replaced by GLNSMV (SEQ ID NO: 28) (from UniProt Q9NSA1 29-209) (ligand) | 78.1
FGF21 Q55C, P147C, G198Y (SEQ ID NO: 45) (from UniProt Q9NSA1 29-209) (ligand) | 3.6
FGF21 P143C, A162C (SEQ ID NO: 116) (from UniProt Q9NSA1 29-209) (ligand) | 17.6
FGF21 I63C, T98C (SEQ ID NO: 111) (from UniProt Q9NSA1 29-209) (ligand) | 87.6
FGF21 G198 deleted, P199L (SEQ ID NO: 32) (from UniProt Q9NSA1 29-209) (ligand) | 4.8
FGF21 G198 deleted, S200 deleted (SEQ ID NO: 74) (from UniProt Q9NSA1 29-209) (ligand) | 77.8
FGF21 G67C, R100C (SEQ ID NO: 112) (from UniProt Q9NSA1 29-209) (ligand) | 23.3
FGF21 I63C, G112C (SEQ ID NO: 79) (from UniProt Q9NSA1 29-209) (ligand) | 5.05
FGF21 Q82C, L94C (SEQ ID NO: 122) (from UniProt Q9NSA1 29-209) (ligand) | 5.57
FGF21 P199T (SEQ ID NO: 23) (from UniProt Q9NSA1 29-209) (ligand) | 1.66

Substance | pERK ICW EC50 [nmol/L]
FGF21 Q55G, Q56C, L146C, P147-R159 deleted and replaced by GGSGGS (SEQ ID NO: 98) (from UniProt Q9NSA1 29-209) (ligand) | 155
FGF21 Q55C, G148C, N149-R159 deleted and replaced by GGSGGS (SEQ ID NO: 95) (from UniProt Q9NSA1 29-209) (ligand) | 7.27
FGF21 R100C, L114C (SEQ ID NO: 103) (from UniProt Q9NSA1 29-209) (ligand) | 48.2
FGF21 E62C, A72C (SEQ ID NO: 106) (from UniProt Q9NSA1 29-209) (ligand) | 2.03
FGF21 G198P, P199G (SEQ ID NO: 24) (from UniProt Q9NSA1 29-209) (ligand) | 10.8
FGF21 S195C, S200C (SEQ ID NO: 8) (from UniProt Q9NSA1 29-209) (ligand) | 10.8
FGF21 D187 deleted (SEQ ID NO: 57) (from UniProt Q9NSA1 29-209) (ligand) | 86.1
FGF21 P77C, K97C (SEQ ID NO: 117) (from UniProt Q9NSA1 29-209) (ligand) | 8.76
FGF21 G198R (SEQ ID NO: 18) (from UniProt Q9NSA1 29-209) (ligand) | 1.15
FGF21 L81C, G95C (SEQ ID NO: 121) (from UniProt Q9NSA1 29-209) (ligand) | 46.5
FGF21 M196 deleted, S201 deleted (SEQ ID NO: 70) (from UniProt Q9NSA1 29-209) (ligand) | 165
FGF21 V197D, G198V, P199D, S200H (SEQ ID NO: 26) (from UniProt Q9NSA1 29-209) (ligand) | 85.8
FGF21 V197 deleted, S201 deleted (SEQ ID NO: 69) (from UniProt Q9NSA1 29-209) (ligand) | 98.7
FGF21 Q55C, P147C, P199 deleted (SEQ ID NO: 44) (from UniProt Q9NSA1 29-209) (ligand) | 10
FGF21 Q55C, G148C, N149-R159 deleted and replaced by GSGS (SEQ ID NO: 94) (from UniProt Q9NSA1 29-209) (ligand) | 8.19
FGF21 A54C, P161C (SEQ ID NO: 109) (from UniProt Q9NSA1 29-209) (ligand) | 6.38
FGF21 P199 deleted (SEQ ID NO: 11) (from UniProt Q9NSA1 29-209) (ligand) | 2.31
FGF21 S191 deleted (SEQ ID NO: 53) (from UniProt Q9NSA1 29-209) (ligand) | 97.3
FGF21 G108C, L142C, P199 deleted (SEQ ID NO: 40) (from UniProt Q9NSA1 29-209) (ligand) | 0.9
FGF21 S76C, S79C, P199 deleted (SEQ ID NO: 38) (from UniProt Q9NSA1 29-209) (ligand) | 1.25
FGF21 Q55C, N149C, P199 deleted (SEQ ID NO: 46) (from UniProt Q9NSA1 29-209) (ligand) | 1.7
FGF21 S200Q, Q201S (SEQ ID NO: 25) (from UniProt Q9NSA1 29-209) (ligand) | 1.62
FGF21 Q55C, G148C (SEQ ID NO: 93) (from UniProt Q9NSA1 29-209) (ligand) | 0.48
